This passage reports ECL signal results from patent US20120316071A1.

In experiment [1] the target is rHuman P-Cadherin/Fc Chimera, CF (R&D Systems Cat#861-PC) (human) (UniProt P22223). The experiment in a line: MSD multispot ECL, antigen spotted, Fab 0.6 nM; blank spot 226.
Experiment [2] has the same target. The experiment in a line: MSD multispot ECL, antigen spotted, Fab 0.1 nM; blank spot 201.
The target is the same in experiment [3]. Kind of experiment: MSD multispot ECL, antigen spotted, Fab 9.3 nM; blank spot 287.
Experiment [4] shares this target. Kind of experiment: MSD multispot ECL, antigen spotted, Fab […]; blank spot 234.
For experiment [5] the target is unchanged. The experiment in a line: MSD multispot ECL, antigen spotted, Fab 37.2 nM; blank spot 199.
Experiment [6] has the same target. The experiment in a line: MSD multispot ECL, antigen spotted, Fab 595.8 nM; blank spot 285.
The target is the same in experiment [7]. The experiment in a line: MSD multispot ECL, antigen spotted, Fab 2383 nM; blank spot 344.
The target is the same in experiment [8]. The experiment in a line: MSD multispot ECL, antigen spotted, Fab 148.9 nM; blank spot 218.
Experiment [9] has as its target rHuman Erythropoietin R/Fc Chimera, CF (R&D Systems Cat#963-ER) (human) (UniProt P19235). Kind of experiment: ECL multispot (MSD) assay, antigen spotted on plate, 10 nM Fab.
Experiment [10] addresses rHuman Notch-1/Fc Chimera, CF (R&D Systems Cat#3647-TK) (human) (UniProt P46531). The experiment in a line: ECL Multispot (MSD) assay, antigen spotted on plate, 10 nM Fab.
For experiment [11], the target named is rHuman Erythropoietin R/Fc Chimera, CF (R&D Systems Cat#963-ER) (human) (UniProt P19235). The experiment in a line: ECL multispot (MSD) binding assay; antigen spotted on plate, Fab in solution, Ru-labelled anti-kappa detection.
Experiment [12] concerns the target rHuman ErbB2/Fc Chimera, CF (R&D Systems Cat#1129-ER) (human) (UniProt P04626). Described as above.
The target of experiment [13] is rHuman CD44/Fc Chimera, CF (R&D Systems Cat#3660-CD) (human) (UniProt P16070). Described as above.
The target in experiment [14] is rHuman Notch-1/Fc Chimera, CF (R&D Systems Cat#3647-TK) (human) (UniProt P46531). Described as above.

In the case of “Fab VH1-46_IGHD6-6*01_IGHJ1*01 & L6_IGKJ1*01”, the ECL signal in experiment [1] worked out at 321 ECL signal; in experiment [2] it was 235 ECL signal; in [3], 452 ECL signal; in [4], 401 ECL signal; in experiment [5], 649 ECL signal; in experiment [6] it was 617 ECL signal. Further, the ECL signal in [7] is 728 ECL signal; in experiment [8], 687 ECL signal.

As to “Fab VH1-46_IGHD6-6*01_IGHJ1*01 S102A/S103P/S104F/H111F & L6_IGKJ1*01”, the ECL signal in [9] came to 438.

Consider “Fab VH1-46_IGHD6-6*01_IGHJ1*01 S102A/S103P/S104F/H111F F29A & L6_IGKJ1*01”, for which the ECL signal in [10] turned out to be 374; in [11], 1060; in experiment [12] it was 1290; in experiment [13], 978; in experiment [14], 6090.
